# B1: parent anti-basigin mAb (antibody, V domains shown)
# VH: EVQLQQSGPELVKTGASVKISCKASGYSFSDDYMHWVKQSHGKSLEWIGYISCYNGVPSYNQKFKGKATFTVDTSSSTAYMQFSSLTSEDSAVYYCARGGNHGFYYHAMDYWGQGTSVTVSS
# VL: DIVLTQSPAILSVSPGERVSFSCRASQSIGTGIHWYQQRTNGSPRLLIKFASESISGIPSRFSGSGSGTDFTLSINSVESEDIADYFCQQSTSWPYTFGGGTKLEIK
# B2: recombinant chimeric anti-basigin antibody Ab-1 (antibody, V domains shown)
# VH: B1 VH
# VL: B1 VL
# Biological target: purified monomeric (gel filtered) recombinant basigin (Homo sapiens, UniProt P35613-2, strain)
# Assay: SPR
binder,measurement,value
B1,Kd,~4 nM
B2,Kd,~4 nM
